These results are taken from patent US20100298541A1 (published 2010).

In this assay the target is T1, TRAIL-R2/Fc fusion protein (R & D Systems) (UniProt O14763 54-182, limits assumed).
T1 construct: not shown: Fc part of the bought fusion; captured with anti-human IgG Fc antibody
Kind of assay: biosensor, TRAIL-R2-Fc fusion protein immobilized; mono-, bi- and tetravalent D1 constructs injected. As to the method:
FIG. 19. Binding affinity of Tn3 monomers and multimers. Depicted in this panel are sensorgrams from a Biosensor binding experiment using mono-, bi- and tetravalent 1C12 and D1 Tn3 constructs. TRAIL-R2-Fc fusion protein was immobilized on a sensor chip while sample proteins were injected over the chip. “tetra” refers to the tetravalent Cκ/IGHG1 fusion constructs.
A qualitative comparison of binding by monomeric 1C12, 1C12-Fc and 1C12-Cκ/1C12-IGHG1 proteins was performed by injecting samples of each of these proteins over a TRAIL-R2 chip on an Attana biosensor instrument.

T1 sequence (O14763 54-182 limits assumed): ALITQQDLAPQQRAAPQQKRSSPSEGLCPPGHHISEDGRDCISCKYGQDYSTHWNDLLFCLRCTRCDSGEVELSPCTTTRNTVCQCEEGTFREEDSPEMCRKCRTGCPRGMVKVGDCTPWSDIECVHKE

B1: D1 (designed binder)
chain: IEVKDVTDTTALITWSPGERIWMFTGCELTYGIKDVPGDRTTIDLTEDENQYSIGNLKPDTEYEVSLICPNYERISNPAKETFTT
Turning to B1, the binding result is “no binding”.
